The data set has as its target T1, zuotin (ZUO1), yeast-purified fractions (Saccharomyces cerevisiae, UniProt P32527 SEQ:1-433).
T1 sequence: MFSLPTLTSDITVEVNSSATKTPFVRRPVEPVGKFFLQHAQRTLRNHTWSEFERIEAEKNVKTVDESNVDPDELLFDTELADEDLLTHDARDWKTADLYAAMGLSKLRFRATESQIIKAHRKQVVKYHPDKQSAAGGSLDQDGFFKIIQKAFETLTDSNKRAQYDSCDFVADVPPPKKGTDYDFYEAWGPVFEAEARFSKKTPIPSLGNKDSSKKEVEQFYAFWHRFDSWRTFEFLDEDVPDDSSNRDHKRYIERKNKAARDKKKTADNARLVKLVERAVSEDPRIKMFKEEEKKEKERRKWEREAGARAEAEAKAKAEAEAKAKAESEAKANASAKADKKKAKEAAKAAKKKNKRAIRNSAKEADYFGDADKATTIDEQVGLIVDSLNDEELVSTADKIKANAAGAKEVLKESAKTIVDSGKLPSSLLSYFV
The data set is described as follows: EMSA; fraction FI; 2000-fold excess salmon sperm DNA. The settings on record: tags: none; label: 32P; left-handed Z-DNA, 44mer alternating dG-Br5dC.

Text: In order to determine if these band shifts were the result of authentic Z-DNA binding, negatively supercoiled plasmids of pUC19 and pUC19(GC) were used as competitor DNAs in gel retardation competition assays.
A gel retardation assay was employed to detect proteins with affinity to left-handed Z-DNA. In these assays, two kinds of left-handed DNA probes were used. […] The other probe was derived from a synthetic 44mer oligo(dG-Br⁵dC)₂₂, labelled using Klenow polymerase with [α-³²P]dGTP, and stabilized in the Z-DNA conformation by 10 mM MgCl₂, or 0.1 mM Co(NH₃)₆³⁺. […] In the competition assays, supercoiled pUC19 and pUC19(CG) were added to the reaction samples separately. […] After electrophoresis, the gel was dried and exposed to X-ray film.

B1: oligo (dG-Br5dC)22 Z-form (dsDNA)
DNA 1: GCGCGCGCGCGCGCGCGCGCGCGCGCGCGCGCGCGCGCGCGCGC
DNA 2: B1 DNA 1
modifications: 5-bromo-dC at all C [5-bromo-dC at all C (2,4,6,8,10,12,14,16,18,20,22,24,26,28,30,32,34,36,38,40,42,44 of each strand)]
Regarding B1, the binding result is “binds”.
